Data published in publication PMC2139755.
Where “and” joins values, the source holds several entries; their conditions need not be identical. Equal values may be shown once. Read-outs that look alike come from different tables or passages of the source.

Tests used:
Assay in all cases: radioligand binding
[1] = target: receptor for IgE on rat basophilic leukemia cells (RBL-1 cells) (rat (endogenous in RBL-1)) (UniProt P12371)
[2] = target: receptor for IgE on rat basophilic leukemia cells (RBL-1 cells) (rat (endogenous in RBL-1)) (UniProt P12371); remark: listed apart in the source
[3] = target: receptor for IgE on rat basophilic leukemia cells (RBL-1 cells) (rat (endogenous in RBL-1)) (UniProt P12371); remark: listed apart in the source

Chain of UniProt P12371 (P12371 24-245, chain 1 of 3): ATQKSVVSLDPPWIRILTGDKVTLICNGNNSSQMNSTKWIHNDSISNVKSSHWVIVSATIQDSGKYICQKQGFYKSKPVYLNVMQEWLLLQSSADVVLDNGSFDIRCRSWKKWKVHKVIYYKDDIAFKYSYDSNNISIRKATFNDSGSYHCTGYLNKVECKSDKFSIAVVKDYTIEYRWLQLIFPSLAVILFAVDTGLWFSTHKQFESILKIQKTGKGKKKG
Chain of UniProt P12371 (P13386 whole entry, chain 2 of 3, further chain): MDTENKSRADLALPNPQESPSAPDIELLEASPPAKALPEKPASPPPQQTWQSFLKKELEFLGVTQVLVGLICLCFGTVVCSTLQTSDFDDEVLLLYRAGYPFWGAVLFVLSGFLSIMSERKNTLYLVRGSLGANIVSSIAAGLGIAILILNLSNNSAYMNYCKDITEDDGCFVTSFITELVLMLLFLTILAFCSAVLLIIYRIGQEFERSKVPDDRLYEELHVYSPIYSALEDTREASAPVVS
Chain of UniProt P12371 (P20411 19-86, chain 3 of 3, further chain): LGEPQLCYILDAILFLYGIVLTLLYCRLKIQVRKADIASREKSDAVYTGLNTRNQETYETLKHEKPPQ

[125I]IgE (IR 162), 125I-labeled rat IgE myeloma protein (antibody)
Ka [1]: 1.2e+10 M⁻¹ | koff [1]: 4.7e-06 s⁻¹ | kon [1]: 57000 M⁻¹ s⁻¹ | Ka [2]: 1.2e+09 M⁻¹ | koff [2]: 1.7e-05 s⁻¹ | kon [2]: 21000 M⁻¹ s⁻¹ | Ka [3]: > 6e+09 M⁻¹ and 6e+09 M⁻¹ | half-life of dissociation [3]: 12 h | koff [3]: 1.6e-05 s⁻¹ and 1.4e-05 s⁻¹ | percent of the labeled protein bound (active fraction) [3]: 70 to 80% | relative binding at 15 min (% of no additive), Ca++ 2 mM [3]: 92% | relative binding at 15 min (% of no additive), Ca++ 4 mM [3]: 88% | relative binding at 15 min (% of no additive), Ca++ 8 mM [3]: 80% | relative binding at 15 min (% of no additive), Ca++ and Mg++ 2, 2 mM [3]: 86% | relative binding at 15 min (% of no additive), EDTA 4 mM [3]: 98% | relative binding at 15 min (% of no additive), EDTA (4 mM) plus Ca++ 2 mM [3]: 78% | relative binding at 15 min (% of no additive), EDTA (4 mM) plus Ca++ 4 mM [3]: 43% | relative binding at 15 min (% of no additive), EDTA (4 mM) plus Mg++ 2 mM [3]: 85% | relative binding at 15 min (% of no additive), EDTA (4 mM) plus Mg++ 8 mM [3]: 44% | relative binding at 15 min (% of no additive), Mg++ 2 mM [3]: 93% | relative binding at 15 min (% of no additive), Mg++ 4 mM [3]: 89% | relative binding at 15 min (% of no additive), Mg++ 8 mM [3]: 82% | relative binding at 20 min (% of no additive), Al2(SO4)3 0.7 x 10^-7 M [3]: 110% | relative binding at 20 min (% of no additive), Al2(SO4)3 7.0 x 10^-7 M [3]: 108% | relative binding at 20 min (% of no additive), Al2(SO4)3 70 x 10^-7 M [3]: 105% | relative binding at 20 min (% of no additive), heparin 3.3 ug/ml [3]: 101% | relative binding at 20 min (% of no additive), heparin 10 ug/ml [3]: 110% | relative binding at 20 min (% of no additive), heparin 30 ug/ml [3]: 102% | relative binding at 20 min (% of no additive), human serum albumin 0.3 mg/ml [3]: 93% | relative binding at 20 min (% of no additive), phosphatidyl serine 12.5 ug/ml [3]: 105% | relative binding at 20 min (% of no additive), phosphatidyl serine 50 ug/ml [3]: 116% | relative binding at 20 min (% of no additive), phosphatidyl serine 200 ug/ml [3]: 135% | relative binding at 60 min (% of no additive), Al2(SO4)3 0.7 x 10^-7 M [3]: 101% | relative binding at 60 min (% of no additive), Al2(SO4)3 7.0 x 10^-7 M [3]: 97% | relative binding at 60 min (% of no additive), Al2(SO4)3 70 x 10^-7 M [3]: 96% | relative binding at 60 min (% of no additive), heparin 3.3 ug/ml [3]: 99% | relative binding at 60 min (% of no additive), heparin 10 ug/ml [3]: 97% | relative binding at 60 min (% of no additive), heparin 30 ug/ml [3]: 101% | relative binding at 60 min (% of no additive), human serum albumin 0.3 mg/ml [3]: 99% | relative binding at 60 min (% of no additive), phosphatidyl serine 12.5 ug/ml [3]: 112% | relative binding at 60 min (% of no additive), phosphatidyl serine 50 ug/ml [3]: 114% | relative binding at 60 min (% of no additive), phosphatidyl serine 200 ug/ml [3]: 121% | relative binding at 61 min (% of no additive), Ca++ 2 mM [3]: 95% | relative binding at 61 min (% of no additive), Ca++ 4 mM [3]: 91% | relative binding at 61 min (% of no additive), Ca++ 8 mM [3]: 85% | relative binding at 61 min (% of no additive), Ca++ and Mg++ 2, 2 mM [3]: 70% | relative binding at 61 min (% of no additive), EDTA 4 mM [3]: 96% | relative binding at 61 min (% of no additive), EDTA (4 mM) plus Ca++ 2 mM [3]: 88% | relative binding at 61 min (% of no additive), EDTA (4 mM) plus Ca++ 4 mM [3]: 46% | relative binding at 61 min (% of no additive), EDTA (4 mM) plus Mg++ 2 mM [3]: 97% | relative binding at 61 min (% of no additive), EDTA (4 mM) plus Mg++ 8 mM [3]: 53% | relative binding at 61 min (% of no additive), Mg++ 2 mM [3]: 70% | relative binding at 61 min (% of no additive), Mg++ 4 mM [3]: 64% | relative binding at 61 min (% of no additive), Mg++ 8 mM [3]: 62%
